IntAct's records for PubMed 22632968
Blank lines part the entries; values can stand above or below the substance they belong to.

Experiments:
sun2_human SUN2 [1] = molecular target: sun2_human SUN2 (UniProt Q9UH99)
sun2_human SUN2 [2] = molecular target: sun2_human SUN2 (UniProt Q9UH99); remark: listed apart in the source
sun1_human SUN1 [3] = molecular target: sun1_human SUN1 (UniProt O94901)
sun2_human SUN2 [4] = molecular target: sun2_human SUN2 (UniProt Q9UH99); remark: listed apart in the source
sun1_human SUN1 [5] = molecular target: sun1_human SUN1 (UniProt O94901); remark: listed apart in the source
sun2_human SUN2 [6] = molecular target: sun2_human SUN2 (UniProt Q9UH99); remark: listed apart in the source
sun1_human SUN1 [7] = molecular target: sun1_human SUN1 (UniProt O94901); remark: listed apart in the source

sun1_human SUN1, sequence (O94901 whole entry): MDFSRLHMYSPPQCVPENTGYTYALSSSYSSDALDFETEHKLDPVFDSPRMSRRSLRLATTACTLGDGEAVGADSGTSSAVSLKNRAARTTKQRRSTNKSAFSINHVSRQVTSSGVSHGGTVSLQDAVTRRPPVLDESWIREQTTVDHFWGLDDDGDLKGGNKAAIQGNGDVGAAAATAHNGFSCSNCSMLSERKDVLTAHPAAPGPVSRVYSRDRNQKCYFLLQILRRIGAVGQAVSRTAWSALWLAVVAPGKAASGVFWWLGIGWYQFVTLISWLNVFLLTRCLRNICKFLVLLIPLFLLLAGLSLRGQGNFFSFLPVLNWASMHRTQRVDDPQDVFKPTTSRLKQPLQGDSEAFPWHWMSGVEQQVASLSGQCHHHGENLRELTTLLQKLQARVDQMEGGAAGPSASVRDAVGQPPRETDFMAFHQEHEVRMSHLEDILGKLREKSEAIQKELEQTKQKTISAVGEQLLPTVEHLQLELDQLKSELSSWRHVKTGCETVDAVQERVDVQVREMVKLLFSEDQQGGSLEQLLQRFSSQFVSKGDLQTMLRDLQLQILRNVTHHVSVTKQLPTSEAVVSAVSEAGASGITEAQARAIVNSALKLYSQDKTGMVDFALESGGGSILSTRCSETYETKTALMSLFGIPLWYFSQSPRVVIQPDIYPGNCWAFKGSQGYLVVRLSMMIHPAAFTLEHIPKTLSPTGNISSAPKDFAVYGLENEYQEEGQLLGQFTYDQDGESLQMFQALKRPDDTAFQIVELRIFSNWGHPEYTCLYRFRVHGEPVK
sun2_human SUN2, sequence (Q9UH99 whole entry): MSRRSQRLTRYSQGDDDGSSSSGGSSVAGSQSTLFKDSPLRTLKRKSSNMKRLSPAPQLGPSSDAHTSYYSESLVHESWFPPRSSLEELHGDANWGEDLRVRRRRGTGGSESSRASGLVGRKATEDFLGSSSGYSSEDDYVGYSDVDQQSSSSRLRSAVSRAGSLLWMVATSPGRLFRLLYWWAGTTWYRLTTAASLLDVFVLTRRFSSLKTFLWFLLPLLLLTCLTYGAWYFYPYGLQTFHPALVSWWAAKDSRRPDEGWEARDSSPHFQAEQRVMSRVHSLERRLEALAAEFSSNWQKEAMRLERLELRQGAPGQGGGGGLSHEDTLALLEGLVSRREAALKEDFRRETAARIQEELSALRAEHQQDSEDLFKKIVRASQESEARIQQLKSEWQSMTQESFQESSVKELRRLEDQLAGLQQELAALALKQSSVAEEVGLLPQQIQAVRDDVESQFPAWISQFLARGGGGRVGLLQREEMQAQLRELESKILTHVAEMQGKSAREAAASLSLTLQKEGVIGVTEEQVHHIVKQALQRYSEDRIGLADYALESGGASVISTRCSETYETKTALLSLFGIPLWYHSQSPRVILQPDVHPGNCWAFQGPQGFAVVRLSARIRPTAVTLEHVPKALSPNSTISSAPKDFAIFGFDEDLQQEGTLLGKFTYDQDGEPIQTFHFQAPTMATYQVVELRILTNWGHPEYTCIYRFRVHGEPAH

Substance: Nesprin-1 (Homo sapiens), Q8NF91-1 C8774S
- effect of a mutation on the interaction (sun2_human SUN2 [2]): disrupting interaction strength
- effect of a mutation on the interaction (sun1_human SUN1 [3]): disrupting interaction strength
- effect of a mutation on the interaction (sun2_human SUN2 [4]): decreasing interaction strength
- effect of a mutation on the interaction (sun1_human SUN1 [5]): disrupting interaction

Substance: Nesprin-2 (Homo sapiens), Q8WXH0 P6883A
- effect of a mutation on the interaction (sun2_human SUN2 [1]): disrupting interaction strength

The next lines start with the values.

- effect of a mutation on the interaction (sun2_human SUN2 [1]): disrupting interaction strength
Substance: Nesprin-2 (Homo sapiens), Q8WXH0 L6876A

- effect of a mutation on the interaction (sun2_human SUN2 [1]): disrupting interaction strength
Substance: Nesprin-2 (Homo sapiens), Q8WXH0 Y6878A

- effect of a mutation on the interaction (sun2_human SUN2 [6]): disrupting interaction strength
- effect of a mutation on the interaction (sun1_human SUN1 [7]): disrupting interaction strength
Substance: Nesprin-2 (Homo sapiens), Q8WXH0-1 C6862S
